This is an account of results in PMC7809406, “Structure of a full-length bacterial polysaccharide co-polymerase” (Nature Communications, 2021).

What is called stoichiometry N is the number of molecules, sites or subunits per partner or assembly.

The data set concerns the molecule itself. In words: cryo-EM structure; single-particle analysis of SEC population 1 in DDM (25 mM TRIS pH 8.0, 100 mM NaCl, 3% glycerol, 0.5 mM TCEP, 0.02% DDM), 3.0 mg/mL; protomers to octamer; maps with C1 and C8 symmetry.

B1: N-terminal truncated WzzB, missing residues 1-15 (truncated E16M variant) (domain or fragment, E. coli K12, UniProt P76372 16-326, looked up)
chain: MQIDLIDLLVQLWRGKMTIIISVIVAIALAIGYLAVAKEKWTSTAIITQPDVGQIAGYNNAMNVIYGQAAPKVSDLQETLIGRFSSAFSALAETLDNQEEREKLTIEPSVKNQQLPLTVSYVGQTAEGAQMKLAQYIQQVDDKVNQELEKDLKDNIALGRKNLQDSLRTQEVVAQEQKDLRIRQIQEALQYANQAQVTKPQIQQTGEDITQDTLFLLGSEALESMIKHEATRPLVFSPNYYQTRQNLLDIESLKVDDLDIHAYRYVMKPMLPIRRDSPKKAITLILAVLLGGMVGAGIVLGRNALRNYNAK
notes: WzzB of E. coli K12 missing the first 15 amino acids; a start codon was introduced at position 16 (E16M); Same vector and non-cleavable C-terminal 8×His tag as m1; Virtually all particles are dimers of octamers; also called N-terminally truncated WzzB; N-terminally truncated variant; source: E. coli C41, membranes solubilized with 1% DDM, purified (Ni-NTA, Superdex 200 SEC); not shown: 8×His, …
Turning to B1, the “stoichiometry N” value turned out to be 8.

B2: Full-length WzzB polysaccharide co-polymerase of E. coli (natural protein, E. coli K12, UniProt P76372 1-326, looked up)
chain: MRVENNNVSGQNHDPEQIDLIDLLVQLWRGKMTIIISVIVAIALAIGYLAVAKEKWTSTAIITQPDVGQIAGYNNAMNVIYGQAAPKVSDLQETLIGRFSSAFSALAETLDNQEEREKLTIEPSVKNQQLPLTVSYVGQTAEGAQMKLAQYIQQVDDKVNQELEKDLKDNIALGRKNLQDSLRTQEVVAQEQKDLRIRQIQEALQYANQAQVTKPQIQQTGEDITQDTLFLLGSEALESMIKHEATRPLVFSPNYYQTRQNLLDIESLKVDDLDIHAYRYVMKPMLPIRRDSPKKAITLILAVLLGGMVGAGIVLGRNALRNYNAK
notes: WzzB, polysaccharide co-polymerase (O-antigen chain length regulator), amplified from E. coli K12 genomic DNA; full-length gene; Integral membrane protein in a DDM micelle; The 8×His tag is non-cleavable (modified pWaldo vector); About 25% of the particles are dimers of the octamer; also called native protein; polysaccharide co-polymerase (PCP) Wzz; source: E. coli C41, membranes solubilized with …
For B2, the “stoichiometry N” value was found to be 8.
